This is an account of results in PMC9105526, “Escherichia coli tRNA 2-Selenouridine Synthase (SelU): Elucidation of Substrate Specificity to Understand the Role of S-Geranyl-tRNA in the Conversion of 2-Thio- into 2-Selenouridines in Bacterial tRN”.

The target in this data set is T1, MBP-SelU (tRNA 2-selenouridine synthase) (Escherichia coli, UniProt P33667 1-364).
T1 sequence: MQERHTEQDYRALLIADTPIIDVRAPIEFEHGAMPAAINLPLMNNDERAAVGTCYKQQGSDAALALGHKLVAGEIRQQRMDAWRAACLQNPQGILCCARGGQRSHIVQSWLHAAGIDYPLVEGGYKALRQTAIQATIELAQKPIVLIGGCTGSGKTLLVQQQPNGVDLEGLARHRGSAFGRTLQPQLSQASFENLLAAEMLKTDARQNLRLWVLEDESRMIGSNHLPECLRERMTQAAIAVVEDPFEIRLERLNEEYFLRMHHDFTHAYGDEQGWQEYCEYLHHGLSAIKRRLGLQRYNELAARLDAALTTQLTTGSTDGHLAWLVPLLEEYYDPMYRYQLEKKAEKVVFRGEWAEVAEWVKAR
In words: MST (initial fluorescence); 10 mM Mg2+; MST: 2x assay buffer 20 mM Tricine pH 7.2, 20 mM MgCl2, 0.1% Tween-20 mixed with RNA (about 10 mM Tricine, 10 mM MgCl2, 0.05% Tween-20 final if 1:1); Cy3-RNA 50-75 nM; 30 min at room temperature, measured at 22 C. Particulars: protein: recombinant, tags: N-terminal MBP (42 kDa, pMAL-c5x), label: 5'-Cy3, hairpin.

B1: Cy3-Se2U(34)-RNALys (structured_RNA)
RNA: GUUGACUUUUAAUCAAC
modifications: 2-selenouridine (Se2U) at nt 8 (tRNA position 34)
On to B1, for which, for the setting “7-nt loop”, the dissociation constant (Kd) was found to be 27.1 ± 1.5 µM.

B2: Cy3-geS2U(34)-RNALys (structured_RNA)
RNA: GUUGACUUUUAAUCAAC
modifications: S-geranyl-2-thiouridine (geS2U) at nt 8 (tRNA position 34)
Turning to B2, the Kd (7-nt loop) amounted to 3.95 ± 0.4 µM.

B3: Cy3-U(34)-RNALys (structured_RNA)
RNA: GUUGACUUUUAAUCAAC
On to B3, for which, for the setting “7-nt loop CUUUUAA”, the Kd stood at 25.5 ± 1.8 µM.

B4: Cy3-S2U(34)-RNALys (structured_RNA)
RNA: GUUGACUUUUAAUCAAC
modifications: 2-thiouridine (S2U) at nt 8 (tRNA position 34)
As for B4, the dissociation constant (Kd) (7-nt loop) is 22.4 ± 1.6 µM.
